In the nanobody polyreactivity screen of Harvey et al. (2022):

Experiment: yeast display, Sf9 membrane polyspecificity reagent, FACS + sequencing; frameworks hold sequencing errors
Method in brief: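 Galactose induction of a Saccharomyces cerevisiae BJ5465 synthetic nanobody display library ran 36–48 hours. The cells were then stained for 1 hour at 4 °C with 10% biotinylated, detergent-solubilized Sf9 membrane reagent, pulled down on streptavidin microbeads and FACS-sorted into low and high (top ~1%) gates on expression and reagent-binding fluorescence. Labels for polyreactivity follow the gate of origin.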

Sequence	polyreactivity (PSR sort gate)
QVQLVESGGGLVQAGGSLRLSCAASGIIFFIYAMGWYRQAPGKERELVARISIGGSTYYADSVKGRFTISRDNAKNTVYLQMNSLKPEDTAVYYCAARCGGLRATYHYWGQGTQVTVSS	low polyreactivity
QVQLVESGGGLVQAGGSLRLSCAASGIIFFKYAMGWYRQAPGKERELVARISWSGSTYADSVKGRFTISRDNAKNTVYLQMNSLKPEDTAVYYCAADSFTITADSDDYWGQGTQVTVSS	low polyreactivity
QVQLVESGGGLVQAGGSLRLSCAASGIIFFPYAMVWYRQAPGKEREFVAAITSRGGSTYYADSVKGRFTISRDNAKNTVYLQMNSLNPEDTAVYYFAADGWLWSFTGDGWWFDYWGQGTQVTVSS	low polyreactivity
QVQLVESGGGLVQAGGSLRLSCAASGIIFGDNAMGWYRQAPGKERELVAAIDSGGSTYYADSVKGRFTISRDNAKNTVYLQMNSLKPEDTAVYYCNAVTAFGYSYGGWDYDQYNYWGQGTQVTVSS	low polyreactivity
QVQLVESGGGLVQAGGSLRLSCAASGIIFGDNAMGWYRQAPGKERELVAAISSGGITYYADSVKGRFTISRDNAKNTVYLQMNSLKPEDTAVYYCAAGYYDFWYDYWGQGTQVTVSS	low polyreactivity
QVQLVESGGGLVQAGGSLRLSCAASGIIFGDNAMGWYRQATGKERELVAAIDYGDGSTYYADSVKGRFTISRDNENNTVYLQMNRLKPEDTAVYYCNADDGGPGVVLPTKEYDYWGQGTQVTVSS	low polyreactivity
QVQLVESGGGLVQAGGSLRLSCAASGIIFGENAMGWYRQAPGKERELVAAINSVGSTYYADSVKGRFTISRDNAKNTVYLQMNSLKPEDTAVYYCAAESWFLRWYRYDYWGQGTQVTVSS	low polyreactivity
QVQLVESGGGLVQAGGSLRLSCAASGIIFGFNAMRWYRQAPGKEREFVADITYSGGSTYYADSVKGRFTISRDNAKNTVYLHMNSLKPEDTAVYYCAADEVSFWGYIYDYWGQGTQVTVSS	high polyreactivity
QVQLVESGGGLVQAGGSLRLSCAASGIIFGFYAMGWYRQAPGKERELVAAITNDGGITNYADSVKGRFTISRDNAMNTVYLQMNSLKPEDTAVYYCAKDQWPWVRDSLYTLRYDYWGQGTQVTVSS	low polyreactivity
QVQLVESGGGLVQAGGSLRLSCAASGIIFGGYDMGWYRQAPGKERELVAAISWSGGSTYYADSVKGRFTISRDNAKNTVYLQMNSLKPEDTAVYYCNAVGRRNVDSSLNDYWGQGTQVTVSS	low polyreactivity
QVQLVESGGGLVQAGGSLRLSCAASGIIFGHYAMGWYRQAPGKERELVARITYSGTRTYYADSVKGRFTISRDNAKNTVYLQMNSLKPEDTAVYYCAAGYAYPRWVTAGNNWGQGTQVTVSS	high polyreactivity
QVQLVESGGGLVQAGGSLRLSCAASGIIFGKYAMGWYRPAPGKDRELVAAINYSGSTYYADSVKGRFTISRDNAKNTVYLQMNSLKPEDTAVYYCAARNRTFFQPTYYYWGQGTQVTVSS	high polyreactivity
QVQLVESGGGLVQAGGSLRLSCAASGIIFGPYVMGWYRQAPGKERELVATISRTGDTYYADSVKGRFTISRDNAKNTVYLQMNSLKPEDTAVYYCAVEWSAHKYYYWGQGTQVTVSS	low polyreactivity
QVQLVESGGGLVQAGGSLRLSCAASGIIFGQNAMGWYRQAPGKERELVAAITISGGSTYYADSVKGRFTISRDNAKNTVYLQMNSLKPEDTAVYYCAARRVTWKDIARGYRYGYWGQGTQVTVSS	low polyreactivity
QVQLVESGGGLVQAGGSLRLSCAASGIIFGRYAMGWYRQAPGKERELVATISRSGGTTYYADSVKGRFTISRDNAKNTVYLQMNSLKPEDTAVYYCAARWTSRYDYWGQGTQVTVSS	high polyreactivity
QVQLVESGGGLVQAGGSLRLSCAASGIIFGSNAMGWYRQAPGKERELVAAITSGGNTYYADSVKGRFTISRDNAKNTVYLQMNSLKPEDTAVYYCAARRPRRYGYWGQGTQVTVSS	high polyreactivity
QVQLVESGGGLVQAGGSLRLSCAASGIIFGSNAMGWYRQSPGKERELVAAISRNGGRTYYADSVKGRFTISRDNAKNTVYLQMNSLKPEDTAVYYCATRWPHYGGYYYWGQGTQVTVSS	high polyreactivity
